This series concerns the molecule itself. Briefly: SEC; HiLoad Superdex 200 PG, 20 mM Tris-HCl, 100 mM NaCl, pH 7.4; apo protein after Strep-tag purification; elution profile overlaid with that of a protein of known size (25.0 kDa). (In general: In gel filtration, larger molecules generally elute earlier.)

From publication PMC7516205, “The Two-Component Locus MSMEG_0244/0246 Together With MSMEG_0243 Affects Biofilm Assembly in M. smegmatis Correlating With Changes in Phosphatidylinositol Mannosides Acylation” (Frontiers in Microbiology, 2020) come the findings set out here.

As a reminder, the stoichiometry N is a count of units in the complex or per binding partner.

B1: StrepMSMEG_0243 (truncated MSMEG_0243 lacking the predicted signal peptide) (natural protein, Mycobacterium smegmatis mc2155, UniProt A0QP20 26-116, looked up)
chain: DPAPNPPNCTAADLAGVASGVSAGTSAYLFTHPQVNDFFTSLEGLPREEVKPKVADYLAANPQVKDELTAVRQPLVDLKNRCGTAPAPELP
notes: truncated version lacking the predicted signal peptide (predicted cleavage site between pos. 25 and 26: ALA-DP); The methods name the vector once as pET-22(b)+ and once as pET-28(b)+; vector-derived residues may be present; also called apo-MSMEG_0243; source: E. coli Bl21 Rosetta, purified (Streptavidin beads, size exclusion chromatography)
Take B1: the “stoichiometry N” value stood at 2.
